Target: T1, recombinant human interferon-alpha/beta R2 receptor Fc chimera (R&D Systems, Product 4015-AB) (human, UniProt P48551 27-243)
T1 construct: Bought reagent, coated onto ELISA plates; also called rhIFN-R2 Fc; Fc part of the bought chimera not given
T1 sequence (looked up): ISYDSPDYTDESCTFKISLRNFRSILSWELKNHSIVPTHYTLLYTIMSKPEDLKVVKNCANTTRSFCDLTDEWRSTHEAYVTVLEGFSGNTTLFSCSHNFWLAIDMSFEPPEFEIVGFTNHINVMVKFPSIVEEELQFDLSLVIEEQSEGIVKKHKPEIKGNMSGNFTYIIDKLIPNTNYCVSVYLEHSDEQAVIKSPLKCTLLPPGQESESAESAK
Assay: Receptor binding (competition): displacement of 125I-IFN-alpha from plate-coated rhIFN-R2 Fc; untreated and RP-HPLC-purified samples
Description: Receptor binding competition assays were performed using purified rhIFN-beta1b from Bar 25 protein and BETASERON, and unprocessed Bar 25 protein and BETASERON. The assay was performed using the recombinant human interferon-alpha/beta R2 receptor Fc (rhIFN-R2 Fc) chimera (R&D Systems, Product 4015-AB). This receptor binds both interferon-alpha and interferon-beta. ¹²⁵I-human interferon-alpha (¹²⁵I-IFN-alpha) was used as the competing reagent to avoid potential effects of radiolabeling on the rhIFN-beta1b products. rhIFN-R2 Fc was coated onto ELISA plates and ¹²⁵I-IFN-alpha was added at a fixed concentration to each well. […] Unlabeled IFN-alpha was used as a control. The amount of ¹²⁵I-IFN-alpha remaining bound to rhIFN-R2 Fc after the competition was measured and plotted as a function of the rhIFN-beta1b concentration. The resulting curves for each product and purified rhIFN-beta1b sample were compared.

B1: Bar 25 protein (recombinant human interferon beta-1b, C17S IFN-beta-1b, refolded under high pressure) (ligand)
chain: SYNLLGFLQRSSNFQSQKLLWQLNGRLEYCLKDRMNFDIPEEIKQLQQFQKEDAALTIYEMLQNIFAIFRQDSSSTGWNETIVENLLANVYHQINHLKTVLEEKLEKEDFTRGKLMSSLHLKRYYGRILHYLKAKEYSHCAWTIVRVEILRNFYFINRLTGYLRN
notes: Non-glycosylated, expressed in E. coli; It was tested untreated and after RP-HPLC/SEC-HPLC isolation; The research-grade material was partially deamidated; also called rhIFN beta-1b; rhIFN-beta1b
binding result: binds

From US20090208453A1 (NURON BIOTECH, published 2009)
